Data reported in patent US20150239991A1 (GLENMARK PHARMACEUTICALS S A, published 2015).
Residue numbers refer to the chain shown, from its start. Names may count otherwise. Read-outs that look alike come from different tables or passages of the source.

How the values were obtained:
human FcRn [1] = target: T1, human FcRn (human, UniProt P55899 24-297; P61769 21-119); experiment: SPR on human FcRn at pH 6.0, steady state KD expressed as ratio to the unmodified IGHG1 control
T1 construct: range 24-297;range 21-119; Alpha chain non-covalently associated with beta2-microglobulin; used as analyte at pH 6.0; also called human neonatal Fc receptor; soluble form of the extracellular region of the human FcRn
Method: (§1) Growth medium was PowerCHO2 (Lonza Ltd, Basel, Switzerland). Prior purification, post-production supernatants were conditioned with 0.2M NaH₂PO₄, 0.1M NaCl pH6.0 in order to adjust pH to 6.0. FcRn was purified using human IgG sepharose6 Fast flow (GE Healthcare Europe GmbH, Glattbrugg, Switzerland) and eluted with PBS pH7.4. Measurements were recorded on a BIAcore™ 2000 instrument (GE Healthcare Europe GmbH, Glattbrugg, Switzerland). Each Immunoglobulin variant was immobilized on a CM5 sensor chip (GE Healthcare Europe GmbH, Glattbrugg, Switzerland) via amine coupling using a standard protocol provided by the manufacturer to reach an approximate response of 1500 RUs. […] After 3 min of dissociation, PBS pH7.4 was injected for 1 min at 30 μl/min for surface regeneration. KD values were determined using a steady state affinity model. Equilibrium constants were determined by fitting the steady-state response versus the concentration of human FcRn over a range of concentrations to a 1:1 binding model (stoichiometry (n)=1). Measurements were performed in triplicate, and included zero-concentration samples for referencing. Both Chi2 and residual values were used to evaluate the quality of a fit between the experimental data and individual binding models.
To fit this purpose, each homo-dimeric immunoglobulin was directly coupled onto a CM5 sensor chip. A soluble form of the extracellular region of the human FcRn consisting of its alpha chain non-covalently associated with beta2-microglobulin protein was prepared and used as analyte.

human FcRn [2] = target: T1, human FcRn; experiment: SPR (BIAcore 2000): immunoglobulin amine-coupled to a CM5 chip, human FcRn injected as analyte at pH 6.0, steady state affinity model
Method: as §1
To fit this purpose, each homo-dimeric immunoglobulin was directly coupled onto a CM5 sensor chip. […]

Protein G [3] = target: T2, Protein G (group C and G Streptococci, UniProt P19909 303-427); experiment: Protein G gradient mode chromatography (HiTrap Protein G HP column), A280 trace against pH gradient
T2 construct: Two commercial resins used (Sepharose 4 Fast Flow for capture-elution, HiTrap HP for gradient); also called Protein G Sepharose™ 4 Fast Flow resin; HiTrap™ Protein G HP column

Protein G [4] = target: T2, Protein G; experiment: as above; remark: listed apart in the source
Protein G [5] = target: T2, Protein G; experiment: as above; remark: listed apart in the source
MabSelect™ Protein A = target: T3, MabSelect™ Protein A (Staphylococcus aureus, UniProt P38507 37-327); experiment: Protein A gradient mode chromatography (HiTrap MabSelect column), A280 trace against pH gradient
T3 construct: also called HiTrap™ MabSelect™ Protein A column; MabSelect™ resin

T1 sequence (P55899 24-297 limits assumed, form in doubt, chain 1 of 2): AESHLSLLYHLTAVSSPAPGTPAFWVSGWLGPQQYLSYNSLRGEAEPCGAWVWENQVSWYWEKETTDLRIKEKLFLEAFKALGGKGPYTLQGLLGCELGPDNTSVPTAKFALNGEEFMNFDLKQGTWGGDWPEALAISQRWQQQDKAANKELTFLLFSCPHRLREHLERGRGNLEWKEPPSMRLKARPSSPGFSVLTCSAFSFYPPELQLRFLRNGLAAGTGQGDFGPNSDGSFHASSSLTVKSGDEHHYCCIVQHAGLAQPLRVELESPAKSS
T1 sequence (P61769 21-119 limits assumed, form in doubt, chain 2 of 2): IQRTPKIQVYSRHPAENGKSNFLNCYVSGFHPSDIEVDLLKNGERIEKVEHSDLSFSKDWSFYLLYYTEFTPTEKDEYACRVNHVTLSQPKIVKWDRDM

B1: Anti-hCD19 FAB-Fc S426M/M428G/H433D/N434A (antibody, human IgG1, kappa)
heavy chain: QVQLVQSGGGVVQPGRSLRLSCAASGVSLPDYGVSWVRQAPGKGLEWVAVIWGSETTYYNSALKSRFTISRDNSKNTLYLQMNSLRAEDTAVYYCAKHYYYGGSYAMDYWGQGTLVTVSSASTKGPSVFPLAPSSKSTSGGTAALGCLVKDYFPEPVTVSWNSGALTSGVHTFPAVLQSSGLYSLSSVVTVPSSSLGTQTYICNVNHKPSNTKVDKKVEPKSCDKTHTCPPCPAPELLGGPSVFLFPPKPKDTLMISRTPEVTCVVVDVSHEDPEVKFNWYVDGVEVHNAKTKPREEQYNSTYRVVSVLTVLHQDWLNGKEYKCKVSNKALPAPIEKTISKAKGQPREPQVYTLPPSRDELTKNQVSLTCLVKGFYPSDIAVEWESNGQPENNYKTTPPVLDSDGSFFLYSKLTVDKSRWQQGNVFSCMVGHEALDAHYTQKSLSLSPGK
light chain: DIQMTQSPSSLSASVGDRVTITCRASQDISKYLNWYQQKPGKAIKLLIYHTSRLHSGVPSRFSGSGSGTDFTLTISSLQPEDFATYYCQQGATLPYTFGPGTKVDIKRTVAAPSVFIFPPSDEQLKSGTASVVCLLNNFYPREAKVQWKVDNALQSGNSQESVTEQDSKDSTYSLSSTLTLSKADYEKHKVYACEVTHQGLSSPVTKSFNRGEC
Human FcRn [1]
  KD ratio (IGHG1/mutant): 0.48

B2: anti-hCD19 FAB-Fc 113 (antibody, human IgG1, kappa)
heavy: QVQLVQSGGGVVQPGRSLRLSCAASGVSLPDYGVSWVRQAPGKGLEWVAVIWGSETTYYNSALKSRFTISRDNSKNTLYLQMNSLRAEDTAVYYCAKHYYYGGSYAMDYWGQGTLVTVSSASTKGPSVFPLAPSSKSTSGGTAALGCLVKDYFPEPVTVSWNSGALTSGVHTFPAVLQSSGLYSLSSVVTVPSSSLGTQTYICNVNHKPSNTKVDKKVEPKSCDKTHTCPPCPAPELLGGPSVFLFPPKPKDTLMISRTPEVTCVVVDVSHEDPEVKFNWYVDGVEVHNAKTKPREEQYNSTYRVVSVLTVLHQDWLNGKEYKCKVSNKALPAPIEKTISKAKGQPREPQVYTLPPSREEMTKNQVSLTCLVKGFYPSDIAVEWESSGQPENNYNTTPPMLDSDGSFFLYSKLTVDKSRWQQGNIFSCSVMHEALHNRFTQKSLSLSPGK
light: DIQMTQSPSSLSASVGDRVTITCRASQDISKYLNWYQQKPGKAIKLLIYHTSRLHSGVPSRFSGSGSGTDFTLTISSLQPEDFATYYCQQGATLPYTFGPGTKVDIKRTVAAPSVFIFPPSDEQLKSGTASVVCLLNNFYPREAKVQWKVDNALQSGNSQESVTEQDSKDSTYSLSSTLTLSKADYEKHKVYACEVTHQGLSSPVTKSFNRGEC
notes: copies: 2 + 2
Human FcRn [1]
  KD ratio (IGHG1/mutant): 0.76

B3: anti-hCD19 FAB-Fc 133 (antibody, human IgG1, kappa)
heavy: B2 heavy with K277Q, N279K, Y303F, A342T
light: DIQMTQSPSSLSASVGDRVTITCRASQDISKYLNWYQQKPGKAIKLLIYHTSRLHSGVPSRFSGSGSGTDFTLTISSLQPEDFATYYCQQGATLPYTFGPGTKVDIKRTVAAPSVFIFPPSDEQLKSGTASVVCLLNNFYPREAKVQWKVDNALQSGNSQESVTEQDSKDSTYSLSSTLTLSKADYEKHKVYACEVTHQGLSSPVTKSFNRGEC
notes: copies: 2 + 2
Human FcRn [1]
  KD ratio (IGHG1/mutant): 0.73
Human FcRn [2]
  Kd: 2680 nM

B4: Fc M252A/E380A/E382A/Y436A/Q438A (other)
chain: DKTHTCPPCPAPELLGGPSVFLFPPKPKDTLAISRTPEVTCVVVDVSHEDPEVKFNWYVDGVEVHNAKTKPREEQYNSTYRVVSVLTVLHQDWLNGKEYKCKVSNKALPAPIEKTISKAKGQPREPQVYTLPPSRDELTKNQVSLTCLVKGFYPSDIAVAWASNGQPENNYKTTPPVLDSDGSFFLYSKLTVDKSRWQQGNVFSCSVMHEALHNHATAKSLSLSPGK
notes: Homo-dimeric human IGHG1 Fc variant, EU numbering
Protein G [3]
  binding result: no binding

B5: Fc S426M/M428G/H433D/N434A (other)
chain: B4 chain with A32M, A160E, A162E, S206M, M208G, H213D, N214A, A216Y, A218Q
notes: as for B4
Protein G [4]
  binding result: no binding

B6: Fc S254M/E380M/E382L/S426M/M428G (other)
chain: B4 chain with A32M, S34M, A160M, A162L, S206M, M208G, A216Y, A218Q
notes: as for B4
Protein G [5]
  binding result: no binding

B7: Anti-HER2 FAB R19G/T57A/Y59A (Fab)
heavy chain: EVQLVESGGGLVQPGGSLGLSCAASGFNIKDTYIHWVRQAPGKGLEWVARIYPTNGYARAADSVKGRFTISADTSKNTAYLQMNSLRAEDTAVYYCSRWGGDGFYAMDYWGQGTLVTVSSASTKGPSVFPLAPSSKSTSGGTAALGCLVKDYFPEPVTVSWNSGALTSGVHTFPAVLQSSGLYSLSSVVTVPSSSLGTQTYICNVNHKPSNTKVDKKVEPKSC
light chain: not shown
notes: also called combination R19G/T57A/Y59A
MabSelect™ Protein A
  binding result: no binding
